Assay results as given in patent US20100234294A1 (INSTITUT NATIONAL DE LA SANTE ET DE LA RECHERCHE MEDICALE …, published 2010).

How the values were obtained:
Assay in all cases: co-expression in COS cells
[1] = target: T1, FcERIγ (UniProt P30273 19-86)
T1 sequence (looked up): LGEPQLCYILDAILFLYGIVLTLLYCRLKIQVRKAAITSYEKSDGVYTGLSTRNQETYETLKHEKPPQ

[2] = target: T2, DAP10 (UniProt Q9UBK5 19-93)
T2 sequence (looked up): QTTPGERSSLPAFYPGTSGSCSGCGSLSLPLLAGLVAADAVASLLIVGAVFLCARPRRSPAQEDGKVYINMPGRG

[3] = target: T3, ζ (UniProt P20963 22-164)
T3 construct: also called CD3ζ

[4] = target: DAP12 (UniProt O43914 22-113)

Measured: binding result

DAP12, sequence (O43914 22-113 limits assumed): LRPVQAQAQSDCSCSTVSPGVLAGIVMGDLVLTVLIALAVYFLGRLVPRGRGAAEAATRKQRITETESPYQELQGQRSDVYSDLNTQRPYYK
T3 sequence (P20963 22-164 limits assumed): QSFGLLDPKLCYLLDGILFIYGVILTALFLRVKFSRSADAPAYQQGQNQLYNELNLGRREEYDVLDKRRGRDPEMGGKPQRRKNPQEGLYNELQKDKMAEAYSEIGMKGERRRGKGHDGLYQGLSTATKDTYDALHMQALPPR

B1: CD160-TM, Flag-tagged, expressed by transfected cells (receptor)
chain: GCINITSSASQEGTRLNLICTVWHKKEEAEGFVVFLCKDRSGDCSPETSLKQLRLKRDPGIDGVGEISSQLMFTISQVTPLHSGTYQCCARSQKSGIRLQGHFFSILFTETGNYTVTGLKQRQHLEFSHNEGTLSSGFLQEKVWVMLVTSLVALQGMSKRAVSTPSNEGAIIFLPPWLFSRRRRLERMSRGREKCYSSPGYPQESSNQFH
notes: Expressed in Jurkat cells from pEF6; Also used here for the co-expression in COS cells, where the construct is not described; also called CD160-TM transfectants; CD160-TM-transfected cells; not shown: Flag tag coded by the reverse oligonucleotide (C-terminal)
no binding: all assays above
